Results as given in publication PMC6318002 (Nature, 2018).

Target: the molecule itself
Assay: cross-linking

B1: recombinant PKM2-C423/424A (enzyme)
chain: not shown
  stoichiometry N: 4
